Series [1] relates to RN2 (AML) cells. Put plainly: Competitive proliferation assay. The series is classed as cell-based, mouse. The conditions noted are these: monitored for 8 days, no endogenous target gene. On the procedure:
(§1) The 3 best-performing ARTi-shRNAmirs were analyzed for their effects on proliferation of diverse mouse cell lines originating from different tissues. This experimental step monitors potential off-target effects. Should an off-target, relevant to the proliferative capacity be knocked down, a decrease in cellular fitness would be expected. NIH 3T3 (embryonic fibroblasts), EPP2 (PDAC) and RN2 (AML) cells were transduced with ARTi-shRNAs or validated control shRNAs. Subsequently, the percentage of shRNA expressing cells was monitored via flow cytometry in regular intervals for 8 days in competitive co-culture assays. For competitive proliferation assays, NIH 3T3, EPP2 and RN2 cells were retrovirally transduced with shRNAmir expression plasmids and initial infection levels were determined by flow cytometry based on mCherry expression 4 days post transduction (Day 0). The percentage of infected cells was then further monitored in regular intervals to determine the effects of shRNA expression in the absence of an endogenous target gene for the ARTi-shRNAmirs.

The subject of series [2] is NIH 3T3, EPP2 and RN2 cells. Put plainly: Competitive proliferation assays, result stated for all cell lines together. The series is classed as cell-based, mouse. The conditions noted are these: all tested cell lines, competitive co-culture. On the procedure: as §1
In series [3] the test system is EGFR^del19::dsRed::ARTi. Put plainly: Western blot of doxycycline induced knockdown in PC-9 cells. The series is classed as cell-based. The conditions noted are these: endogenous EGFR knocked out, doxycycline induced expression. On the procedure:
The EGFR^del19::Linker::dsRed::ARTi construct was transduced into EGFR^del19dependent PC-9 cells. The endogenous EGFR gene was then knocked out using CRISPR/Cas9, making the PC-9 cells dependent on EGFR^del19::dsRed::ARTi. PC-9 cell pellets for different genetic backgrounds and treatments were lysed in triton lysis buffer, sonicated, and stored at −80° C. until for protein detection, the pellets were thawed on ice, followed by 15 minutes centrifugation at 13,000 rpm at 4° C. Then, cell lysates were loaded onto a 12% pre-casted SDS-polyacrylamide gel electrophoresis and proteins were transferred onto a nitrocellulose membrane and PDVF-membrane, respectively. Both membranes were probed with the respective primary antibodies overnight. The next day, the secondary antibodies conjugated with fluorescent dye were added and the proteins were detected by the Odyssey detection system.
On the technique in general: Immunoblotting shows a protein as a band on a membrane.

In series [4] the test system is NIH 3T3, EPP2 and MR125 cells. Put plainly: Transcriptional profiling (QuantSeq) for off-target effects. It is filed as cell-based, mouse. The conditions noted are these: cells expressing ARTi-shRNAs vs empty vector control, no target gene expression. The procedure: To directly quantify off-target effects of the top 3 ARTi-shRNAs, transcriptome profiling in NIH 3T3, EPP2 and MR125 cells expressing ARTi-shRNAs or empty vector control was performed. For the unbiased identification of ARTi shRNA off-targets NIH-3T3, EPP2 and MR125 cells were retrovirally transduced with shRNAmir expression plasmids and selected for shRNA expression using G418 Sulfate (0.5 mg/mL for EPP2 and NIH 3T3 and 1 mg/mL for MR125, respectively; Gibco). 1.5×106 (NIH 3T3 and EPP2) or 2×106 (MR125) cells were pelleted, washed with PBS, lysed, treated with DNAse I and whole RNA was extracted using magnetic beads (in-house) and a KingFisher Duo Prime Purification System (ThermoFisher). Next generation sequencing libraries were prepared using QuantSeq 3′ mRNA-Seq Library Prep Kit (Lexogen) according to manufacturer's instructions and sequenced on a HiSeq2500 platform (Illumina).
RefSeq genes and 3′-UTR annotations were prepared from the UCSC table browser (https://genome.ucsc.edu/cgi-bin/hgTables, May 2016). […] Reads were aligned to the GRCm38 primary assembly using Slamdunk v0.2.410 in QuantSeq mode (slamdunk map-5 12-n 100-q) and alignments were filtered to recover multimappers with the acquired 3′-UTR set (slamdunk filter-b). Reads were quantified against said 3′-UTR annotation using featureCounts v1.5.0-p211 using stranded counting and counting multimapping reads (−M ˜s 1). […]

From patent publication US20250051759A1, “METHODS AND MOLECULES FOR RNA INTERFERENCE (RNAi)” (BOEHRINGER INGELHEIM INTERNATIONAL GMBH, priority 2021, published 2025) come the findings set out here.

Numbering of substitutions follows the chain as printed. “Also recorded” adds a separate entry of the source.

B1: ARTi-shRNA 6634: ARTi-shRNAmir, antisense RNA UUCGAUUAAAACAUCAUCCGGA (SEQ ID NO: 10), 97 mer SEQ ID NO: 22 (nucleic acid)
chain: UGCUGUUGACAGUGAGCGCCCGGAUGAUGUUUUAAUCGAAUAGUGAAGCCACAGAUGUAUUCGAUUAAAACAUCAUCCGGAUGCCUACUGCCUCGGA
Turning to B1, the “growth compared to non-transduced cells in competitive co-culture” value is reported as “growth disadvantage; also recorded: adverse effect” in series [1] and “considerable growth disadvantage” in series [1] (listed as ARTi.6634).

B2: ARTi-shRNA 6570: ARTi-shRNAmir, antisense RNA UUCGAUAACAAUAUCAUCCGGA (SEQ ID NO: 6), 97 mer SEQ ID NO: 18 (nucleic acid)
chain: B1 chain with G29A, U32G, A34U, U66A, A68C, C71U
B2: the “percentage of shRNA expressing cells over time / toxicity” value in series [2] is on record as “no considerable toxicity”. In addition, the “EGFR^del19::dsRed::ARTi protein levels” value in series [3] is listed as “reduction”. Besides, the “transcriptional effects / responses (principal component analysis)” value in series [4] is recorded as “only mild transcriptional responses”.

B3: ARTi-shRNA 6786: ARTi-shRNAmir, antisense RNA UUCGUAUACAAUAUCAUCCGGA (SEQ ID NO: 12), 97 mer SEQ ID NO: 24 (nucleic acid)
chain: B1 chain with G29A, U32G, A35U, U36A, A64U, U65A, A68C, C71U
Consider B3, for which the “percentage of shRNA expressing cells over time / toxicity” value in series [2] was “no considerable toxicity”. For the same molecule, in series [4], the “transcriptional effects / responses (principal component analysis)” value was “only mild transcriptional responses”.
